Laboratory results from PMC10183829, “Shuffled ATG8 interacting motifs form an ancestral bridge between UFMylation and autophagy” (The EMBO Journal, 2023).
Where a chain is given by its changes, count along the chain named. Numbers in names are those of the source.

T1: GST-ATG8A, Q8LEM4
T1 chain: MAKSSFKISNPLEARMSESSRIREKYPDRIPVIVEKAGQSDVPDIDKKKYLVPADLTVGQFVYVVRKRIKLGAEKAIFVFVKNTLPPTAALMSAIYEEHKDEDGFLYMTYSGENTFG

B1: mCh-HsC53, Q96JB5 IDWG267WDGI; IDWG292WDGI; IDWG310WDGI (protein)
chain: MEDHQHVPIDIQTSKLLDWLVDRRHCSLKWQSLVLTIREKINAAIQDMPESEEIAQLLSGSYIHYFHCLRILDLLKGTEASTKNIFGRYSSQRMKDWQEIIALYEKDNTYLVELSSLLVRNVNYEIPSLKKQIAKCQQLQQEYSRKEEECQAGAAEMREQFYHSCKQYGITGENVRGELLALVKDLPSQLAEIGAAAQQSLGEAIDVYQASVGFVCESPTEQVLPMLRFVQKRGNSTVYEWRTGTEPSVVERPHLEELPEQVAEDAWDGIDFGVEAVSEGTDSGISAEAAGWDGIIFPESDSKDPGGDGWDGIDDAVALQITVLEAGTQAPEGVARGPDALTLLEYTETRNQFLDELMELEIFLAQRAVELSEEADVLSVSQFQLAPAILQGQTKEKMVTMVSVLEDLIGKLTSLQLQHLFMILASPRYVDRVTEFLQQKLKQSQLLALKKELMVQKQQEALEEQAALEPKLDLLLEKTKELQKLIEADISKRYSGRPVNLMGTSL
B2: mCh-HsC53^sAIM (W269A, W294A, W312A), Q96JB5 1-506 (natural protein)
chain: B1 chain with W267I, G269A, I270G, W292I, G294A, I295G, W310I, G312A, I313G

What was measured:
GST-ATG8A, Q8LEM4 = biological target: T1, GST-ATG8A, Q8LEM4; experiment: microscopy-based protein-protein interaction assay (on-bead binding, confocal); details: chain shown with the change; 1 μM C53 protein; glutathione-sepharose beads with GST-ATG8A; parent: est. 1.0; read off a plot
[1] = biological target: GST-GABARAP (human), O95166; experiment: microscopy-based on-bead protein-protein interaction assay; details: remark: other sources report otherwise
Chain of GST-GABARAP (human), O95166 (O95166 whole entry): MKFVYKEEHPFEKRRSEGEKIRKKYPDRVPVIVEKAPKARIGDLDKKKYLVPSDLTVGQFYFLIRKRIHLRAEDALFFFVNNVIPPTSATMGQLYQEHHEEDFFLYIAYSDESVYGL

| Binder | response (normalized fluorescence) (GST-ATG8A, Q8LEM4) | percent less recruited than the wild type [1] |
| --- | --- | --- |
| B1 | 1.2 |  |
| B2 |  | 78% |
